Assay results as given in article PMC5027486 (Nucleic Acids Research, 2016).

B1: Pseudomonas aeruginosa mismatch repair protein MutS (natural protein, UniProt Q9HY08 1-855, looked up)
chain: MTDLSQHTPMMQQYFKLKHQHPDQLMFYRMGDFYELFYEDAKKAAKLLDITLTARGQSGGKAIPMAGIPFHSAEGYLAKLVKLGESVAICEQIGDPATSKGPVERQVVRIITPGTVSDEALLDERRDNLLAAILGDERLFGLAVLDITSGRFSVQEIKGWETLLAELERLNPAELLIPDDWPQGLPAEKRRGVRRRAPWDFDRDSAHKSLCQQFGTQDLKGFGCQNLTLAIGAAGCLLAYAKETQRTALPHLRSLRHDRLDDTVILDGASRRNLELDINLSGGRENTLQSVVDRCQTAMASRLMSRWLNRPLRDRAVLEARQESIACLLERYRFENLQPQLKEIGDLERILARIGLRNARPRDLARLRDALAALPDLQNAMTELEAPHLQALATTIGTYPELAELLAKAIIDNPPAVIRDGGVIKTGYDAELDELQALSENAGQFLMDLEAREKARTGLPNLKVGYNRIHGYFIELPRVQAEQAPADYIRRQTLKGAERFITPELKAFEDKALSAQSRALAREKALYEELLERLIGHLAPLQDSASALAELDVLANLAERALNLDLNRPRFVEHTCLHIEQGRHPVVEQVLETPFVANDLALDADTRMLVITGPNMGGKSTYMRQTALIVLLAHIGSFVPAARCELSLVDRIFTRIGSSDDLAGGRSTFMVEMSETANILHNATDKSLVLMDEVGRGTSTFDGLSLAWAAAEDLARTRAFTLFATHYFELTVLPESQPAVANVHLNATEHNERIVFLHHVLPGPASQSYGLAVAQLAGVPAPVIQRAREHLKRLETTSLPHEMPSQQSGKPASPMQSDLFASLPHPVIDELSRINPDDISPRQALDLLYAWKMRV
B2: Pseudomonas aeruginosa β clamp processivity factor (natural protein, UniProt Q9I7C4 1-367, looked up)
chain: MHFTIQREALLKPLQLVAGVVERRQTLPVLSNVLLVVEGQQLSLTGTDLEVELVGRVVLEDAAEPGEITVPARKLMDICKSLPNDVLIDIRVEEQKLLVKAGRSRFTLSTLPANDFPTVEEGPGSLNFSIAQSKLRRLIDRTSFAMAQQDVRYYLNGMLLEVNGGTLRSVATDGHRLAMCSLDAQIPSQDRHQVIVPRKGILELARLLTEQDGEVGIVLGQHHIRATTGEFTFTSKLVDGKFPDYERVLPRGGDKLVVGDRQQLREAFSRTAILSNEKYRGIRLQLSNGLLKIQANNPEQEEAEEEVQVEYNGGNLEIGFNVSYLLDVLGVIGTEQVRFILSDSNSSALVHEADNDDSAYVVMPMRL
B3: Pseudomonas aeruginosa DNA polymerase IV (Pol IV) (enzyme, UniProt Q9I534 1-349, looked up)
chain: MRKIIHIDCDCFYAALEMRDDPSLRGKALAVGGSPDKRGVVATCSYEARAYGVRSAMAMRTALKLCPDLLVVRPRFDVYRAVSKQIHAIFRDYTDLIEPLSLDEAYLDVSASPHFAGSATRIAQDIRRRVAEELHITVSAGVAPNKFLAKIASDWRKPDGLFVITPEQVDGFVAELPVAKLHGVGKVTAERLARMGIRTCADLRQGSKLSLVREFGSFGERLWGLAHGIDERPVEVDSRRQSVSVECTFDRDLPDLAACLEELPTLLEELDGRLQRLDGSYRPDKPFVKLKFHDFTQTTVEQSGAGRDLESYRQLLGQAFARGNRPVRLIGVGVRLLDLQGAHEQLRLF

Key:
[1] = target: B2; test: native gel or EMSA
[2] = target: B2; test: native gel or EMSA; remark: listed apart in the source
[3] = target: B1; test: SPR
[4] = target: B1; test: native gel or EMSA
[5] = target: B2; test: SPR

MQSDLFA [MQSDLFA peptide (7-mer spanning the β clamp binding motif of MutS)]
binding result [1]: binds

B1
stoichiometry N [2]: 4

B2
koff [3]: 0.111 s⁻¹
kon [3]: 112000 M⁻¹ s⁻¹
Kd [4]: 1.66 ± 0.09 µM

B3
Kd [5]: 8.97 µM
koff [5]: 0.0052 s⁻¹
kon [5]: 580 M⁻¹ s⁻¹
Kd [2]: 6.22 ± 0.51 µM
stoichiometry N [2]: 1.09 ± 0.06
